Values quoted from earlier work, collected in publication PMC7955094.

Target: His19 (UniProt position 19, ILSALHFMAWT)
Conditions: membrane-bound BM2 tetramer, wild type

Question: Which pKa does the source give for “Influenza B virus M2 protein (BM2) proton channel (Influenza B virus (this article's own samples use strain B/Maryland/1/2001; the strain of the quoted pKa study is not stated))” here?
Answer: The pKa was 5.1.
